According to US20160116473A1 (KOREA INSTITUTE OF RADIOLOGICAL AND MEDICAL SCIENCES, published 2016):

Target: T1, Signal transducer and activator of transcription 3 (STAT3) (human, UniProt P40763 2-770)
T1 construct: Endogenous protein in cell lysates (co-immunoprecipitation) or in fixed cells and tissues (PLA)
Test: co-immunoprecipitation from Hep-2 and RR-Hep-2 cell lysates, immunoblot
Description: Cells were lysed with nonyl phenoxypolyethoxylethanol-40 (NP-40), and the lysates were then precipitated with a negative control mouse antibody (Santa Cruz Biotechnology Inc.) or a mouse monoclonal antibody against ERp57 (Santa Cruz Biotechnology Inc.). Afterwards, immune complexes were collected using protein G-Sepharose and washed 3 times, and SDS sample buffer was added thereto. The samples were size-fractionated by electrophoresis.

T1 sequence (P40763 2-770 limits assumed): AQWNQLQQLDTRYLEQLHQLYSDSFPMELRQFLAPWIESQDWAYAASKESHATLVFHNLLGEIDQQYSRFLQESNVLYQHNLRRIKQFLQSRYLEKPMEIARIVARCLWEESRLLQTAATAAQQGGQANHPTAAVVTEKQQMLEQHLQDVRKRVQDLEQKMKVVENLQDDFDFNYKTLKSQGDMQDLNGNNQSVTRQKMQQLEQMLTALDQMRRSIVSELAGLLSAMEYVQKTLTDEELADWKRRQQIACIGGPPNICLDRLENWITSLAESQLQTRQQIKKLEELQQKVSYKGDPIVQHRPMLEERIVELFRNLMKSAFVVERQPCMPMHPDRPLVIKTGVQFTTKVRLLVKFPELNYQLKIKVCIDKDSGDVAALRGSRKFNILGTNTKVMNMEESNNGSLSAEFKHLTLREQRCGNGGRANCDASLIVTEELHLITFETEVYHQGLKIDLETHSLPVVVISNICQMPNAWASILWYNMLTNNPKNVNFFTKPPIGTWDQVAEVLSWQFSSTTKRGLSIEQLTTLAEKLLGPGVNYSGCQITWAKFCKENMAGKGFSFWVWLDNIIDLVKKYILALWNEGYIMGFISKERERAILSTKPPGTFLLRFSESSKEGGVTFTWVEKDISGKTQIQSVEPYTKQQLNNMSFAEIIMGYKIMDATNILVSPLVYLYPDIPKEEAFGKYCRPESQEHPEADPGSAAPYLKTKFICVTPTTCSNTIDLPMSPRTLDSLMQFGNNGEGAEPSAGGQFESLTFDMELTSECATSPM

- binding result: binds
B1: ERp57 (enzyme, human, UniProt P30101 25-505, looked up)
chain: SDVLELTDDNFESRISDTGSAGLMLVEFFAPWCGHCKRLAPEYEAAATRLKGIVPLAKVDCTANTNTCNKYGVSGYPTLKIFRDGEEAGAYDGPRTADGIVSHLKKQAGPASVPLRTEEEFKKFISDKDASIVGFFDDSFSEAHSEFLKAASNLRDNYRFAHTNVESLVNEYDDNGEGIILFRPSHLTNKFEDKTVAYTEQKMTSGKIKKFIQENIFGICPHMTEDNKDLIQGKDLLIAYYDVDYEKNAKGSNYWRNRVMMVAKKFLDAGHKLNFAVASRKTFSHELSDFGLESTAGEIPVVAIRTAKGEKFVMQEEFSRDGKALERFLQDYFDGNLKRYLKSEPIPESNDGPVKVVVAENFDEIVNNENKDVLIEFYAPWCGHCKNLEPKYKELGEKLSKDPNIVIAKMDATANDVPSPYEVRGFPTIYFSPANKKLNPKKYEGGRELSDFISYLQREATNPPVIQEEKPKKKKKAQEDL
notes: Endogenous protein in cell lysates (co-immunoprecipitation) or in fixed cells and tissues (PLA); also called protein disulfide isomerase family A member 3; PDIA3
